The text below walks through data of PMC3787135.

Substrate in this series: Nc1ncnc2c1ncn2[C@@H]1O[C@H](COP(=O)(O)OP(=O)(O)OP(=O)(O)O)[C@@H](O)[C@H]1O
The experiment in a line: purified protein. The note with it: microtubules; standard assay conditions; apparent Km from gliding velocity.

As a reminder, the Vmax is the rate approached at saturating substrate.

B1: kinesin-II (wild type heterotrimer KLP-11/KLP-20/KAP-1) (Caenorhabditis elegans) (protein)
chain 1: MVEIMKKSSKQETVKVIVRCRPLSSQEIANNYSKIVHMRPQRGQIELKNPKEQDEPSKDFTFDAIYDENSTQSDLYEETFRDLVDSVLNGYNATIFAYGQTGTGKTHTMEGKSSDPEQRGVIYKCIDHIFEHMAASHNQEYLVRASYLEIYQEELRDLLEAESNKKLEIKERPDGGVYVKDLTSKLTRTVGEIHEVMIRGNGHRSVGRTNMNEHSSRSHAIFIITVECSRIGEDGESHITVGRLNLVDLAGSERQSKTGATGERFKEATKINLSLSALGNVISALVDAKSAHIPYRDSKLTRLLQDSLGGNSKTVMVACIGPASYNFEETLGTLRYANRAKNIKNQPKINEDPKDALLREFQEEIEMLREQLKQRKTRSRDGATQSFYDAERAKLEDDIEAIQKDDSLIKHEKDRLIREIQEKHDLLEKERIEQARVAERIANIQSRLIVGSEEDGRLESRTKEQHAQLEKKRRELAEQKRREREMVEALERQEEDTVDLKQTFSDLRTEVEAKTKKLKKMLIKLRQARNEIRDVSGAYSDERQDLDQTIAEVSKELKLKLLIVENFIPRDVSERIKERAEWNEDSFEWNVNAFQSTSSNSSTPLNNTIEVNEDGVFTRSSGADSGVSVSGGNGTPATSQFLDKRLVATPGCRRPMSMCERMLVETAREQFGAQRRPPISGSGSFVEATIPEETIRFCGENVVVFSALERFVPEVTDSDPSTFSNSMMMSARRPSIENLTIDASKVLVPILNQSTMILKNSKNGQARNDTMPPNGSMRRSQN
chain 2: MEGAEKVKVVVRCRPISTTEKLQGHKIAVTCNDEEKAVNIKSLSQEDPPRTFYFDAVFSPNTDQMTVYNVAARPIVENVLKGYNGTIFAYGQTGTGKTFTMAGDLEPVEMRGIIPNSFAHIFDHIAKCQHDTTFLVRVSYLEIYNEEIRDLLSKDHNGNLEIKERPDVGVYVRNLSNPTVENASKMQALMEFGSKNRKVGATAMNLESSRSHAMFTVTIESCRNGLVTQGKLQLVDLAGSERQSKTGAQGERLKEAAKINLSLSTLGNVISSLVDGKSTHIPYRNSKLTRLLQDSLGGNSKTVMIANVGPATYNYDETLSTLRYANRAKNIQNVAKINEDPKDAQLRKFQLEIEALRKILDEENPGDDENQEEAWEAKMQEREVEMEKKRKILEERVNSAVNDEETHRLVKEMMENEAELKKARSEHEKLRSKLEKIEKKLIVGGENLLEKVEEQAKLLEVNNKELEQSKFQEAHLRTQLEERTAVKVEIEERYSSLQEEAFVKSKKIKKVSNELKDARAELKDLEEDHQRQVEAMLDDIRQLRKELLLNIAIIDEYIPVEHVELIEKYVSWSEEHGDWQLKAIAYTGNNMRASAPPAKKEFSNNNQTVPMYYSYRADLGASTAEHRPRTSSKKHRASIRLQQLLT
B1: the Vmax was 15.6 µM/min.
